Measurements from US12723279B2, “Long stokes shift chromenoquinoline dyes and uses in sequencing applications” (priority 2020, dated 2026).

Legend:
Format in all cases: physicochemical
[1] = Fluorescence emission of chromenoquinoline dye labeled ffA nucleotides
Description: (§1) The chromenoquinoline dye of Formula (I) (0.020 mmol) was coevaporated with 2×2 mL of anhydrous N,N′-dimethylformamide (DMF), then dissolved in 2 mL of anhydrous N,N′-dimethylacetamide (DMA). N,N-diisopropylethylamine (28.4 μL, 0.163 mmol) was added, followed by N,N,N′,N′-tetramethyl-O—(N-succinimidyl)uronium tetrafluoroborate as 0.1 M solution in anhydrous DMA (TSTU, 232 μL, 0.023 mmol). The reaction was stirred under nitrogen at RT for 30 minutes. In the meantime, an aqueous solution of the 2′-deoxyadenosine triphosphates-linker (0.01 mmol) was evaporated to dryness under reduced pressure and resuspended in 200 μL, of 0.1 M triethylammonium bicarbonate (TEAB) solution in water. The activated chromenoquinoline dye solution was added to the triphosphate and the reaction was stirred at RT for 18 hours. The crude product was purified firstly by ion-exchange chromatography on DEAE-Sephadex A25 (25 g). The fractions containing the triphosphate were pooled and the solvent was evaporated to dryness under reduced pressure. The crude material was further purified by preparative scale RP-HPLC using a YMC-Pack-Pro C18 column. The final compound was characterized by LC-MS, analytical RP-HPLC and UV-Vis spectroscopy.
(§2) In this example, the spectral properties of several fully functionalized A nucleotides (ffAs) conjugated with the chromenoquinoline dyes described herein were characterized. FIG. 1 illustrates the […] of ffA nucleotides conjugated with chromenoquinoline dyes I-1 through I-6 and I-8 as a 2 μM solution in Universal Scan Mix (USM, 1 M Tris pH 7.5, 0.05% TWEEN, 20 mM sodium ascorbate, 10 mM ethyl gallate). FIGS. 2A-2D show the fluorescence emission spectra of ffA nucleotide conjugated with chromenoquinoline dyes I-1 through I-6 and I-8 acquired using either 450 nm or 520 nm as excitation wavelengths in USM. The spectra were acquired on an Agilent Cary 100 UV-Vis Spectrophotometer and on a Cary Eclipse Fluorescence Spectrophotometer, using quartz or plastic cuvettes. It was observed that the chromenoquinoline dyes described herein can be excited under both blue and green light sources and also have strong fluorescent emission.

[2] = UV-Vis absorption of chromenoquinoline dye labeled ffA nucleotides
Description: as §1, §2

[3] = Stability of dye labeled ffAs in aqueous solution at high pH (ethanolamine and glycine buffers, 45° C.); conditions: 10 μM, dark, vs ffC labeled with coumarin reference dye A
Description: The stability of the compounds ffA-sPA-I-3 and ffA-sPA-I-4 in an aqueous solution at high pH was assessed by incubating a 10 μM solution of the given compound in two buffers: 1) 50 mM ethanolamine buffer, pH 9.6, 50 mM NaCl, 1 mM EDTA, 0.02% CHAPS, 4 mM MgSO4; 2) 50 mM glycine buffer, pH 9.8, 50 mM NaCl, 1 mM EDTA, 0.2% CHAPS, 4 mM MgSO4 at 45° C. in the dark for 6 days. At set time points, the UV-VIS absorption and fluorescence emission of the solutions were measured on an Agilent Cary 100 UV-Vis Spectrophotometer and on a Cary Eclipse Fluorescence Spectrophotometer, using quartz cuvettes. In addition, aliquots of the solutions were taken and analyzed by analytical HPLC. […] The coumarin reference dye A is disclosed in U.S. Publication No. 2018/0094140, having the structure moiety

[4] = 50 mM ethanolamine buffer pH 9.6, 45° C., 6 days (FIG. 3A)
[5] = 50 mM glycine buffer pH 9.8, 45° C., 6 days (FIG. 3B)

SMILES	Fluorescence em. λmax [1]	UV-VIS λmax [2]	fluorescence emission over time [3, 4]	fluorescence emission over time [3, 5]
C=CCOCOC1C[C@H](n2cc(C#CCNC(=O)COC(COc3cccc(C(=O)NCCCCCNC(=O)CCCN4CCCc5cc6c(cc54)OCc4cc5cc(OC)c(OC)cc5[n+](C)c4-6)c3)OCC=C)c3c(N)ncnc32)O[C@@H]1COP(=O)(O)OP(=O)(O)OP(=O)(O)O (stereo partly shown) [ffA-AOM-AOL-I-4]	578 nm	500 nm		
C=CCOCOC1C[C@H](n2cc(/C=C/CNC(=O)COC(COc3cccc(C(=O)NCCCCCNC(=O)CCCN4CCCc5cc6c(cc54)OCc4cc5cc(OC)c(OC)cc5[n+](C)c4-6)c3)OCC=C)c3c(N)ncnc32)O[C@@H]1COP(=O)(O)OP(=O)(O)OP(=O)(O)O (stereo partly shown) [ffA-(DB)-AOM-AOL-I-4]	578 nm	500 nm		
CCN(CC)c1ccc2c(c1)OCc1cc3cc(CC(=O)NCCNC(=O)c4cccc(OCC(N=[N+]=[N-])OCCOCC(=O)NCC#Cc5cn([C@H]6CC(OCN=[N+]=[N-])[C@@H](COP(=O)(O)OP(=O)(O)OP(=O)(O)O)O6)c6ncnc(N)c56)c4)ccc3[n+](C)c1-2 (stereo partly shown) [ffA-LN3-I-6]	574 nm	495 nm		
COc1ccc2c(c1)cc1c([n+]2C)-c2cc3c(cc2OC1)N(CCCC(=O)NCCNC(=O)c1cccc(OCC(N=[N+]=[N-])OCCOCC(=O)NCC#Cc2cn([C@H]4CC(OCN=[N+]=[N-])[C@@H](COP(=O)(O)OP(=O)(O)OP(=O)(O)O)O4)c4ncnc(N)c24)c1)CCC3 (stereo partly shown) [ffA-LN3-I-1]	590 nm	503 nm		
COc1cc2c(cc3c([n+]2C)-c2cc4c(cc2OC3)N(CCCC(=O)NCCCCCNC(=O)c2cccc(OCC(N=[N+]=[N-])OCC(=O)NCC#Cc3cn([C@H]5CC(OCN=[N+]=[N-])[C@@H](COP(=O)(O)OP(=O)(O)OP(=O)(O)O)O5)c5ncnc(N)c35)c2)CCC4)c(OC)c1OC (stereo partly shown) [ffA-sPA-LN3-I-8]	583 nm	500 nm		
COc1cc2cc3c([n+](C)c2cc1OC)-c1cc2c(cc1OC3)N(CCCC(=O)NCCCCCNC(=O)c1cccc(OCC(N=[N+]=[N-])OCC(=O)NCC#Cc3cn([C@H]4CC(OCN=[N+]=[N-])[C@@H](COP(=O)(O)OP(=O)(O)OP(=O)(O)O)O4)c4ncnc(N)c34)c1)CCC2 (stereo partly shown) [ffA-sPA-LN3-I-4]	578 nm	500 nm	decreased very slowly over time	decreased very slowly over time
Cc1cc2cc3c([n+](C)c2cc1C)-c1cc2c(cc1OC3)N(CCCC(=O)NCCCCCNC(=O)c1cccc(OCC(N=[N+]=[N-])OCC(=O)NCC#Cc3cn([C@H]4CC(OCN=[N+]=[N-])[C@@H](COP(=O)(O)OP(=O)(O)OP(=O)(O)O)O4)c4ncnc(N)c34)c1)CCC2 (stereo partly shown) [ffA-sPA-LN3-I-3]	578 nm	500 nm	decreased very slowly over time	decreased very slowly over time
COc1ccc2c(c1)cc1c([n+]2C)-c2cc3c(cc2OC1)N(CCCC(=O)NCCNC(=O)c1cccc(OCC(N=[N+]=[N-])OCCOCC(=O)NCC#Cc2cn([C@H]4CC(OCN=[N+]=[N-])[C@@H](COP(=O)(O)OP(=O)(O)OP(=O)(O)O)O4)c4ncnc(N)c24)c1)C(C)(C)CC3C (stereo partly shown) [ffA-LN3-I-5]	585 nm	501 nm		
Cc1ccc2c(c1)cc1c([n+]2C)-c2cc3c(cc2OC1)N(CCCC(=O)NCCNC(=O)c1cccc(OCC(N=[N+]=[N-])OCCOCC(=O)NCC#Cc2cn([C@H]4CC(OCN=[N+]=[N-])[C@@H](COP(=O)(O)OP(=O)(O)OP(=O)(O)O)O4)c4ncnc(N)c24)c1)CCC3 (stereo partly shown) [ffA-LN3-I-2]	582 nm	500 nm		
